# Target: Mycobacterium tuberculosis type-I fatty acid synthase (FAS-I) (Mycobacterium tuberculosis)
# Experiment: […] (100 mM potassium phosphate pH 7.2, 150 mM KCl, 1 mM TCEP, 1 mM EDTA) […]
substance,measurement,value
Mycobacterium tuberculosis type-I fatty acid synthase (FAS-I) (enzyme),stoichiometry N,6

# From article PMC6155276
